In patent US20240132578A1:

What was measured:
Test in all cases: cell-based or functional assay
[1] = biological target: HIV-1 Env of isolate MGRM-D-008 (pseudovirus) (HIV-1)
[2] = biological target: HIV-1 Env of pseudovirus isolate MGRM-C-012 (clade C) (HIV-1)
[3] = biological target: HIV-1 Env of isolate MGRM-C-004 (HIV-1)
[4] = biological target: HIV-1 Env of isolate MGRM-F1-010 (HIV-1)
[5] = biological target: HIV-1 Env of pseudovirus isolate MGRM-C-006 (clade C) (HIV-1)
[6] = biological target: HIV-1 Env of pseudovirus isolate MGRM-C-027 (clade C) (HIV-1)
[7] = biological target: HIV-1 Env of pseudovirus isolate MGRM-C-026 (clade C) (HIV-1)
[8] = biological target: HIV-1 Env of isolate MGRM-F1-022 (HIV-1)
[9] = biological target: HIV-1 Env of isolate MGRM-AG-002 (subtype AG) (HIV-1)
[10] = biological target: HIV-1 Env of pseudovirus isolate MGRM-C-028 (clade C) (HIV-1)
[11] = biological target: HIV-1 Env of isolate MGRM-D-026 (HIV-1)
[12] = biological target: HIV-1 Env of isolate MGRM-C-028 (subtype C), on pseudovirus (HIV-1)
[13] = biological target: HIV-1 Env of isolate 92RW008 (subtype A) (HIV-1)
[14] = biological target: HIV-1 Env of pseudovirus isolate 92BR020 (clade B) (HIV-1)
[15] = biological target: HIV-1 Env of isolate 98CN006 (HIV-1)
[16] = biological target: HIV-1 Env of pseudovirus isolate 93TH305 (clade B) (HIV-1)
[17] = biological target: HIV-1 Env of pseudovirus isolate MGRM-Chronic-B-008 (clade B) (HIV-1)
[18] = biological target: HIV-1 Env of pseudovirus isolate CAAN.A2 (clade B) (HIV-1)
[19] = biological target: HIV-1 Env of isolate MGRM-G-006 (subtype G) (HIV-1)
[20] = biological target: HIV-1 Env of isolate MGRM-G-024 (subtype G) (HIV-1)
[21] = biological target: HIV-1 Env of isolate MGRM-D-001 (HIV-1)
[22] = biological target: HIV-1 Env of isolate 92UG005 (HIV-1)
[23] = biological target: HIV-1 Env of isolate 92TH021 (pseudovirus) (HIV-1)
[24] = biological target: HIV-1 Env of isolate MGRM-AG-013 (pseudovirus) (HIV-1)
[25] = biological target: HIV-1 envelope glycoprotein (Env) of isolate APV_13, on pseudovirus (HIV-1)
[26] = biological target: HIV-1 envelope glycoprotein (Env) of isolate 92WR020, subtype A (HIV-1)
[27] = biological target: HIV-1 envelope glycoprotein (Env) of isolate 92TH021, subtype AE (HIV-1)
[28] = biological target: HIV-1 envelope glycoprotein (Env) of isolate MGRM-AE-001, subtype AE (HIV-1)
[29] = biological target: HIV-1 envelope glycoprotein (Env) of isolate 93IN905, on pseudovirus (HIV-1)
[30] = biological target: HIV-1 envelope glycoprotein (Env) of isolate THRO.18, on pseudovirus (HIV-1)

4995_P16 (PGT-145) (antibody), sequence (VH): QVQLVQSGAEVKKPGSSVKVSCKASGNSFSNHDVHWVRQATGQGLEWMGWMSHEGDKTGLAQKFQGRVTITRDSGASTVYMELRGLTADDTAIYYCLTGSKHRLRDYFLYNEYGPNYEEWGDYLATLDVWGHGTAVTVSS
4995_P16 (PGT-145) (antibody), sequence (VL): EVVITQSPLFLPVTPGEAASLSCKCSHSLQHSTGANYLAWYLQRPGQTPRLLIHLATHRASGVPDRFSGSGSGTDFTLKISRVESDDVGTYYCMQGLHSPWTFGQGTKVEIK
4970_K22 (PGT-144) (antibody), sequence (VH): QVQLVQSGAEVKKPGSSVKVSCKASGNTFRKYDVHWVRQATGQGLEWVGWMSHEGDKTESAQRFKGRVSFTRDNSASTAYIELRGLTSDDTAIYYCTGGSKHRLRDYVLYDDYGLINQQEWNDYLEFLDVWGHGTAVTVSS
4970_K22 (PGT-144) (antibody), sequence (VL): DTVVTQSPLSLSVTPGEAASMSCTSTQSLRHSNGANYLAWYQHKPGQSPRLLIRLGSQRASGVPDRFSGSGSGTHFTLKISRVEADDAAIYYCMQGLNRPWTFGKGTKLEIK
5345_I01 (PGT-137) (antibody), sequence (VH): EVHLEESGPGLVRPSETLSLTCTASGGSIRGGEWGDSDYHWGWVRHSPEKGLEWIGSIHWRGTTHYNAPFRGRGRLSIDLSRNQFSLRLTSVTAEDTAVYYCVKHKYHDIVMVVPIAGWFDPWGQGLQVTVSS
5345_I01 (PGT-137) (antibody), sequence (VL): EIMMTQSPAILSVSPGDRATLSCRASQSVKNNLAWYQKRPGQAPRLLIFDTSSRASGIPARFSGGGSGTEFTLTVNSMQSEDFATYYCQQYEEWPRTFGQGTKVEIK
5329_C19 (PGT-136) (antibody), sequence (VH): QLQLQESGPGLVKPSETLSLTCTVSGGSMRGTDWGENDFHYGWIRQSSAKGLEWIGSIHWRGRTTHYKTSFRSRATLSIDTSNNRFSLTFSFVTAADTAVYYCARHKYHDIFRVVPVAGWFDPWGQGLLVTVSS
5329_C19 (PGT-136) (antibody), sequence (VL): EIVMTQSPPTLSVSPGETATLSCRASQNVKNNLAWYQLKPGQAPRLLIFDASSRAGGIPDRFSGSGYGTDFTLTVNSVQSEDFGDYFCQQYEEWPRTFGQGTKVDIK

## 5147_N06 (PGT-130) (antibody)
[1]
  IC50 (µg/mL), pseudovirus neutralization: > 50 µg/mL
[2]
  IC50, pseudovirus neutralization: > 50 µg/mL
[3]
  IC50 (µg/mL), pseudovirus neutralization: 2.76 µg/mL
[4]
  IC50 (µg/mL), pseudovirus neutralization: > 50 µg/mL
[5]
  IC50, pseudovirus neutralization: 0.095 µg/mL
[6]
  IC50, pseudovirus neutralization: 0.008 µg/mL
[7]
  IC50, pseudovirus neutralization: 0.036 µg/mL
[8]
  IC50 (µg/mL), pseudovirus neutralization: > 50 µg/mL
[9]
  IC50, pseudovirus neutralization: > 50 µg/mL
[10]
  IC50, pseudovirus neutralization: > 50 µg/mL
[11]
  IC50 (µg/mL), pseudovirus neutralization: > 50 µg/mL

## 4995_P16 (PGT-145) (antibody)
[12]
  IC50, single-round pseudovirus neutralization: 0.099 µg/mL
[13]
  IC50, pseudovirus neutralization: 0.4 µg/mL
[14]
  IC50, pseudovirus neutralization: 1.05 µg/mL
[15]
  IC50 (µg/mL), pseudovirus neutralization: > 50 µg/mL
[16]
  IC50, pseudovirus neutralization: 0.032 µg/mL
[17]
  IC50, pseudovirus neutralization: 1.9 µg/mL
[18]
  IC50, pseudovirus neutralization: 7.08 µg/mL
[19]
  IC50 (µg/mL), pseudovirus neutralization: 0.286 µg/mL
[20]
  IC50 (µg/mL), pseudovirus neutralization: 0.06 µg/mL
[21]
  IC50 (µg/mL), pseudovirus neutralization: 0.56 µg/mL
[22]
  IC50 (µg/mL), pseudovirus neutralization: > 50 µg/mL
[23]
  IC50 (µg/mL), single-round pseudovirus neutralization: 0.013 µg/mL

## 5123_A06 (PGT-125) (antibody)
[24]
  IC50 (µg/mL), pseudovirus neutralization: 0.004 µg/mL
[25]
  IC50, pseudovirus neutralization: 0.007 µg/mL
[26]
  IC50, pseudovirus neutralization: 0.004 µg/mL
[27]
  IC50, pseudovirus neutralization: 0.006 µg/mL
[28]
  IC50, pseudovirus neutralization: 2.95 µg/mL
[29]
  IC50, pseudovirus neutralization: 0.009 µg/mL
[30]
  IC50, pseudovirus neutralization: > 50 µg/mL

## 4970_K22 (PGT-144) (antibody)
[12]
  IC50, single-round pseudovirus neutralization: > 50 µg/mL
[13]
  IC50, pseudovirus neutralization: > 50 µg/mL
[14]
  IC50, pseudovirus neutralization: 44 µg/mL
[15]
  IC50 (µg/mL), pseudovirus neutralization: > 50 µg/mL
[16]
  IC50, pseudovirus neutralization: > 50 µg/mL
[17]
  IC50, pseudovirus neutralization: > 50 µg/mL
[18]
  IC50, pseudovirus neutralization: > 50 µg/mL
[19]
  IC50 (µg/mL), pseudovirus neutralization: 3.84 µg/mL
[20]
  IC50 (µg/mL), pseudovirus neutralization: 7.92 µg/mL
[21]
  IC50 (µg/mL), pseudovirus neutralization: > 50 µg/mL
[22]
  IC50 (µg/mL), pseudovirus neutralization: > 50 µg/mL
[23]
  IC50 (µg/mL), single-round pseudovirus neutralization: 0.052 µg/mL

## 5345_I01 (PGT-137) (antibody)
[1]
  IC50 (µg/mL), pseudovirus neutralization: > 50 µg/mL
[2]
  IC50, pseudovirus neutralization: 0.102 µg/mL
[3]
  IC50 (µg/mL), pseudovirus neutralization: 0.026 µg/mL
[4]
  IC50 (µg/mL), pseudovirus neutralization: > 50 µg/mL
[5]
  IC50, pseudovirus neutralization: > 50 µg/mL
[6]
  IC50, pseudovirus neutralization: > 50 µg/mL
[7]
  IC50, pseudovirus neutralization: 0.011 µg/mL
[8]
  IC50 (µg/mL), pseudovirus neutralization: 6.23 µg/mL
[9]
  IC50, pseudovirus neutralization: > 50 µg/mL
[10]
  IC50, pseudovirus neutralization: > 50 µg/mL
[11]
  IC50 (µg/mL), pseudovirus neutralization: > 50 µg/mL

## 5141_B17 (PGT-126) (antibody)
[24]
  IC50 (µg/mL), pseudovirus neutralization: 0.008 µg/mL
[25]
  IC50, pseudovirus neutralization: 0.012 µg/mL
[26]
  IC50, pseudovirus neutralization: 0.006 µg/mL
[27]
  IC50, pseudovirus neutralization: 0.197 µg/mL
[28]
  IC50, pseudovirus neutralization: 9.68 µg/mL
[29]
  IC50, pseudovirus neutralization: 0.015 µg/mL
[30]
  IC50, pseudovirus neutralization: > 50 µg/mL

## 5329_C19 (PGT-136) (antibody)
[1]
  IC50 (µg/mL), pseudovirus neutralization: > 50 µg/mL
[2]
  IC50, pseudovirus neutralization: > 50 µg/mL
[3]
  IC50 (µg/mL), pseudovirus neutralization: 0.034 µg/mL
[4]
  IC50 (µg/mL), pseudovirus neutralization: > 50 µg/mL
[5]
  IC50, pseudovirus neutralization: > 50 µg/mL
[6]
  IC50, pseudovirus neutralization: > 50 µg/mL
[7]
  IC50, pseudovirus neutralization: 0.006 µg/mL
[8]
  IC50 (µg/mL), pseudovirus neutralization: 2.42 µg/mL
[9]
  IC50, pseudovirus neutralization: > 50 µg/mL
[10]
  IC50, pseudovirus neutralization: 33.7 µg/mL
[11]
  IC50 (µg/mL), pseudovirus neutralization: > 50 µg/mL

## 4877_D15 (PGT-122) (antibody)
[24]
  IC50 (µg/mL), pseudovirus neutralization: 0.521 µg/mL
[25]
  IC50, pseudovirus neutralization: 0.778 µg/mL
[26]
  IC50, pseudovirus neutralization: 0.009 µg/mL
[27]
  IC50, pseudovirus neutralization: > 50 µg/mL
[28]
  IC50, pseudovirus neutralization: > 50 µg/mL
[29]
  IC50, pseudovirus neutralization: 0.013 µg/mL
[30]
  IC50, pseudovirus neutralization: > 50 µg/mL

## 5343_B08 (PGT-135) (antibody)
[1]
  IC50 (µg/mL), pseudovirus neutralization: > 50 µg/mL
[2]
  IC50, pseudovirus neutralization: 0.017 µg/mL
[3]
  IC50 (µg/mL), pseudovirus neutralization: 0.046 µg/mL
[4]
  IC50 (µg/mL), pseudovirus neutralization: > 50 µg/mL
[5]
  IC50, pseudovirus neutralization: > 50 µg/mL
[6]
  IC50, pseudovirus neutralization: > 50 µg/mL
[7]
  IC50, pseudovirus neutralization: 0.004 µg/mL
[8]
  IC50 (µg/mL), pseudovirus neutralization: 0.964 µg/mL
[9]
  IC50, pseudovirus neutralization: > 50 µg/mL
[10]
  IC50, pseudovirus neutralization: 1.47 µg/mL
[11]
  IC50 (µg/mL), pseudovirus neutralization: > 50 µg/mL
